Data from paper PMC7057681 (ACS Omega, 2020).

Assays:
SEC [1] = molecular target: the molecule itself; test: SEC
SEC-SAXS = molecular target: the molecule itself; test: SEC-SAXS
SEC [2] = molecular target: the molecule itself; test: SEC; remark: listed apart in the source

Row | Protein | stoichiometry N (SEC [1]) | stoichiometry N (SEC-SAXS) | stoichiometry N (SEC [2])
1 | S100A3 R51Q mutant (natural protein, human) MARPLEQAVAAIVCTFQEYAGRCGDKYKLCQAELKELLQKELATWTPTEFQECDYNKFMSVLDTNKDCEVDFVEYVRSLACLCLYCHEYFKDCPSEPPCSQ | 4 | 2 | 
2 | citrullinated S100A3 (R51Z), WT S100A3 citrullinated in vitro by PAD3 (natural protein, human, citrulline at R51 (by PAD3 in vitro)) MARPLEQAVAAIVCTFQEYAGRCGDKYKLCQAELKELLQKELATWTPTEFRECDYNKFMSVLDTNKDCEVDFVEYVRSLACLCLYCHEYFKDCPSEPPCSQ | 4 |  | 
3 | S100A3 R51E mutant (natural protein, human) MARPLEQAVAAIVCTFQEYAGRCGDKYKLCQAELKELLQKELATWTPTEFEECDYNKFMSVLDTNKDCEVDFVEYVRSLACLCLYCHEYFKDCPSEPPCSQ |  |  | 4
